Data as given in patent publication US20230416330A1, “Optimized GIP Peptide Analogues” (Antag Therapeutics ApS, priority 2019, published 2023).
Starred links: 1 amine or outer side, 2 acyl side, 3 side chain; linkers in the order of their positions; H or OH if unused. Non-standard residues stand in square brackets, D forms with d. Groups on a side chain read outwards from the residue. No end group written: not given here. *: point of attachment. C18 diacid = O=C(O)CCCCCCCCCCCCCCCCC(=O)*; C16 diacid = O=C(O)CCCCCCCCCCCCCCC(=O)*; γGlu = O=C(O)[C@H](CCC(=O)[*:2])N[*:1]; Glutaryl = O=C(CCCC(=O)[*:2])[*:1]; Nle = CCCC[C@H](N)C(=O)O; AEEA = NCCOCCOCC(=O)O; Aib = CC(C)(N)C(=O)O

Biological target: T1, human GIP receptor (human, UniProt P48546 22-466)
T1 sequence (looked up): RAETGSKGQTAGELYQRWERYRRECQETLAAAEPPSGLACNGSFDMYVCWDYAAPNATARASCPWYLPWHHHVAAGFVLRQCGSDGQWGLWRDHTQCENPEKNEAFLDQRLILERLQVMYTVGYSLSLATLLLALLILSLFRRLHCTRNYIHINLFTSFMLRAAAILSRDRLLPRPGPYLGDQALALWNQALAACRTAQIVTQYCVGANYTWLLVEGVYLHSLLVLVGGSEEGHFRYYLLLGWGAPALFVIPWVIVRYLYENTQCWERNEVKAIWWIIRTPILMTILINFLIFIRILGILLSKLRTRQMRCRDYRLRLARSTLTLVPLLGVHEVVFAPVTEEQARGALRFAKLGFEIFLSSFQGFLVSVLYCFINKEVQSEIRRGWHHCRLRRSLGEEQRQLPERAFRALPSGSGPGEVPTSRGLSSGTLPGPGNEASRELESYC
Assay: cell-based or functional assay

B1: AT685 (peptide)
peptide: EGTFISDYSI[Aib]LDKIK([AEEA-AEEA-γGlu-C18 diacid])QQDFVEWLLAQKPSSGAPPPS-OH
- cAMP antagonism % inhib (CisBio assay): 83%
- cAMP antagonism nM (IC50, CisBio assay): 2 nM
- cAMP antagonism pIC50 (CisBio assay): 8.7

B2: AT683 (peptide)
peptide: EGTFISDYSIA[Nle]DKIK([AEEA-AEEA-γGlu-C18 diacid])QQDFVEWLLAQKPSSGAPPPS-OH
- cAMP antagonism % inhib (CisBio assay): 93%
- cAMP antagonism nM (IC50, CisBio assay): 15.9 nM
- cAMP antagonism pIC50 (CisBio assay): 7.8

B3: AT695 (peptide)
peptide: EGTFISEYSI[Aib]LEKIK([AEEA-AEEA-γGlu-C18 diacid])QQEFVEWLLAQKPSSGAPPPS-OH
modifications: N-terminus assumed
SMILES: CC[C@H](C)[C@H](NC(=O)[C@H](CCCCN)NC(=O)[C@H](CCC(=O)O)NC(=O)[C@H](CC(C)C)NC(=O)C(C)(C)NC(=O)[C@@H](NC(=O)[C@H](CO)NC(=O)[C@H](Cc1ccc(O)cc1)NC(=O)[C@H](CCC(=O)O)NC(=O)[C@H](CO)NC(=O)[C@@H](NC(=O)[C@H](Cc1ccccc1)NC(=O)[C@@H](NC(=O)CNC(=O)[C@@H](N)CCC(=O)O)[C@@H](C)O)[C@@H](C)CC)[C@@H](C)CC)C(=O)N[C@@H](CCCCNC(=O)COCCOCCNC(=O)COCCOCCNC(=O)CC[C@H](NC(=O)CCCCCCCCCCCCCCCCC(=O)O)C(=O)O)C(=O)N[C@@H](CCC(N)=O)C(=O)N[C@@H](CCC(N)=O)C(=O)N[C@@H](CCC(=O)O)C(=O)N[C@@H](Cc1ccccc1)C(=O)N[C@H](C(=O)N[C@@H](CCC(=O)O)C(=O)N[C@@H](Cc1c[nH]c2ccccc12)C(=O)N[C@@H](CC(C)C)C(=O)N[C@@H](CC(C)C)C(=O)N[C@@H](C)C(=O)N[C@@H](CCC(N)=O)C(=O)N[C@@H](CCCCN)C(=O)N1CCC[C@H]1C(=O)N[C@@H](CO)C(=O)N[C@@H](CO)C(=O)NCC(=O)N[C@@H](C)C(=O)N1CCC[C@H]1C(=O)N1CCC[C@H]1C(=O)N1CCC[C@H]1C(=O)N[C@@H](CO)C(=O)O)C(C)C
- cAMP antagonism % inhib (CisBio assay): 98%
- cAMP antagonism nM (IC50, CisBio assay): 0.794 nM
- cAMP antagonism pIC50 (CisBio assay): 9.1

B4: AT686 (peptide)
peptide: EGTFISDYSI[Aib][Nle]DKIK([AEEA-AEEA-γGlu-C18 diacid])QQDFVEWLLAQKPSSGAPPPS-OH
- cAMP antagonism % inhib (CisBio assay): 82%
- cAMP antagonism nM (IC50, CisBio assay): 3.42 nM
- cAMP antagonism pIC50 (CisBio assay): 8.5

B5: AT682 (peptide)
peptide: EGTFISDYSIALDKIK([AEEA-AEEA-γGlu-C18 diacid])QQDFVEWLLAQKPSSGAPPPS-OH
modifications: N-terminus assumed
SMILES: CC[C@H](C)[C@H](NC(=O)[C@H](CO)NC(=O)[C@H](Cc1ccc(O)cc1)NC(=O)[C@H](CC(=O)O)NC(=O)[C@H](CO)NC(=O)[C@@H](NC(=O)[C@H](Cc1ccccc1)NC(=O)[C@@H](NC(=O)CNC(=O)[C@@H](N)CCC(=O)O)[C@@H](C)O)[C@@H](C)CC)C(=O)N[C@@H](C)C(=O)N[C@@H](CC(C)C)C(=O)N[C@@H](CC(=O)O)C(=O)N[C@@H](CCCCN)C(=O)N[C@H](C(=O)N[C@@H](CCCCNC(=O)COCCOCCNC(=O)COCCOCCNC(=O)CC[C@H](NC(=O)CCCCCCCCCCCCCCCCC(=O)O)C(=O)O)C(=O)N[C@@H](CCC(N)=O)C(=O)N[C@@H](CCC(N)=O)C(=O)N[C@@H](CC(=O)O)C(=O)N[C@@H](Cc1ccccc1)C(=O)N[C@H](C(=O)N[C@@H](CCC(=O)O)C(=O)N[C@@H](Cc1c[nH]c2ccccc12)C(=O)N[C@@H](CC(C)C)C(=O)N[C@@H](CC(C)C)C(=O)N[C@@H](C)C(=O)N[C@@H](CCC(N)=O)C(=O)N[C@@H](CCCCN)C(=O)N1CCC[C@H]1C(=O)N[C@@H](CO)C(=O)N[C@@H](CO)C(=O)NCC(=O)N[C@@H](C)C(=O)N1CCC[C@H]1C(=O)N1CCC[C@H]1C(=O)N1CCC[C@H]1C(=O)N[C@@H](CO)C(=O)O)C(C)C)[C@@H](C)CC
- cAMP antagonism % inhib (CisBio assay): 89%
- cAMP antagonism nM (IC50, CisBio assay): 13.6 nM
- cAMP antagonism pIC50 (CisBio assay): 7.9

B6: AT694 (peptide)
peptide: EGTFISEYSIA[Nle]EKIK([AEEA-AEEA-γGlu-C18 diacid])QQEFVEWLLAQKPSSGAPPPS-OH
modifications: N-terminus assumed
SMILES: CCCC[C@H](NC(=O)[C@H](C)NC(=O)[C@@H](NC(=O)[C@H](CO)NC(=O)[C@H](Cc1ccc(O)cc1)NC(=O)[C@H](CCC(=O)O)NC(=O)[C@H](CO)NC(=O)[C@@H](NC(=O)[C@H](Cc1ccccc1)NC(=O)[C@@H](NC(=O)CNC(=O)[C@@H](N)CCC(=O)O)[C@@H](C)O)[C@@H](C)CC)[C@@H](C)CC)C(=O)N[C@@H](CCC(=O)O)C(=O)N[C@@H](CCCCN)C(=O)N[C@H](C(=O)N[C@@H](CCCCNC(=O)COCCOCCNC(=O)COCCOCCNC(=O)CC[C@H](NC(=O)CCCCCCCCCCCCCCCCC(=O)O)C(=O)O)C(=O)N[C@@H](CCC(N)=O)C(=O)N[C@@H](CCC(N)=O)C(=O)N[C@@H](CCC(=O)O)C(=O)N[C@@H](Cc1ccccc1)C(=O)N[C@H](C(=O)N[C@@H](CCC(=O)O)C(=O)N[C@@H](Cc1c[nH]c2ccccc12)C(=O)N[C@@H](CC(C)C)C(=O)N[C@@H](CC(C)C)C(=O)N[C@@H](C)C(=O)N[C@@H](CCC(N)=O)C(=O)N[C@@H](CCCCN)C(=O)N1CCC[C@H]1C(=O)N[C@@H](CO)C(=O)N[C@@H](CO)C(=O)NCC(=O)N[C@@H](C)C(=O)N1CCC[C@H]1C(=O)N1CCC[C@H]1C(=O)N1CCC[C@H]1C(=O)N[C@@H](CO)C(=O)O)C(C)C)[C@@H](C)CC
- cAMP antagonism % inhib (CisBio assay): 88%
- cAMP antagonism nM (IC50, CisBio assay): 1.47 nM
- cAMP antagonism pIC50 (CisBio assay): 8.8

B7: AT677 (peptide)
peptide: Glutaryl-GTFISDYSIAMDKIK(C16 diacid)QQDFVNWLLAQKPSSGAPPPS-OH
SMILES: CC[C@H](C)[C@H](NC(=O)[C@H](CO)NC(=O)[C@H](Cc1ccc(O)cc1)NC(=O)[C@H](CC(=O)O)NC(=O)[C@H](CO)NC(=O)[C@@H](NC(=O)[C@H](Cc1ccccc1)NC(=O)[C@@H](NC(=O)CNC(=O)CCCC(=O)O)[C@@H](C)O)[C@@H](C)CC)C(=O)N[C@@H](C)C(=O)N[C@@H](CCSC)C(=O)N[C@@H](CC(=O)O)C(=O)N[C@@H](CCCCN)C(=O)N[C@H](C(=O)N[C@@H](CCCCNC(=O)CCCCCCCCCCCCCCC(=O)O)C(=O)N[C@@H](CCC(N)=O)C(=O)N[C@@H](CCC(N)=O)C(=O)N[C@@H](CC(=O)O)C(=O)N[C@@H](Cc1ccccc1)C(=O)N[C@H](C(=O)N[C@@H](CC(N)=O)C(=O)N[C@@H](Cc1c[nH]c2ccccc12)C(=O)N[C@@H](CC(C)C)C(=O)N[C@@H](CC(C)C)C(=O)N[C@@H](C)C(=O)N[C@@H](CCC(N)=O)C(=O)N[C@@H](CCCCN)C(=O)N1CCC[C@H]1C(=O)N[C@@H](CO)C(=O)N[C@@H](CO)C(=O)NCC(=O)N[C@@H](C)C(=O)N1CCC[C@H]1C(=O)N1CCC[C@H]1C(=O)N1CCC[C@H]1C(=O)N[C@@H](CO)C(=O)O)C(C)C)[C@@H](C)CC
- cAMP antagonism % inhib (CisBio assay): 93%
- cAMP antagonism nM (IC50, CisBio assay): 0.447 nM
- cAMP antagonism pIC50 (CisBio assay): 9.4

B8: AT693 (peptide)
peptide: EGTFISEYSIALEKIK([AEEA-AEEA-γGlu-C18 diacid])QQEFVEWLLAQKPSSGAPPPS-OH
modifications: N-terminus assumed
SMILES: CC[C@H](C)[C@H](NC(=O)[C@H](CO)NC(=O)[C@H](Cc1ccc(O)cc1)NC(=O)[C@H](CCC(=O)O)NC(=O)[C@H](CO)NC(=O)[C@@H](NC(=O)[C@H](Cc1ccccc1)NC(=O)[C@@H](NC(=O)CNC(=O)[C@@H](N)CCC(=O)O)[C@@H](C)O)[C@@H](C)CC)C(=O)N[C@@H](C)C(=O)N[C@@H](CC(C)C)C(=O)N[C@@H](CCC(=O)O)C(=O)N[C@@H](CCCCN)C(=O)N[C@H](C(=O)N[C@@H](CCCCNC(=O)COCCOCCNC(=O)COCCOCCNC(=O)CC[C@H](NC(=O)CCCCCCCCCCCCCCCCC(=O)O)C(=O)O)C(=O)N[C@@H](CCC(N)=O)C(=O)N[C@@H](CCC(N)=O)C(=O)N[C@@H](CCC(=O)O)C(=O)N[C@@H](Cc1ccccc1)C(=O)N[C@H](C(=O)N[C@@H](CCC(=O)O)C(=O)N[C@@H](Cc1c[nH]c2ccccc12)C(=O)N[C@@H](CC(C)C)C(=O)N[C@@H](CC(C)C)C(=O)N[C@@H](C)C(=O)N[C@@H](CCC(N)=O)C(=O)N[C@@H](CCCCN)C(=O)N1CCC[C@H]1C(=O)N[C@@H](CO)C(=O)N[C@@H](CO)C(=O)NCC(=O)N[C@@H](C)C(=O)N1CCC[C@H]1C(=O)N1CCC[C@H]1C(=O)N1CCC[C@H]1C(=O)N[C@@H](CO)C(=O)O)C(C)C)[C@@H](C)CC
- cAMP antagonism % inhib (CisBio assay): 96%
- cAMP antagonism nM (IC50, CisBio assay): 1.26 nM
- cAMP antagonism pIC50 (CisBio assay): 8.9
